# Reference: article PMC6859792
# Test system: O=P(O)(O)O[C@H]1O[C@H]([C@H](O)CO)[C@@H](O)[C@H](O)[C@@H]1O
# Experiment: purified protein
# Conditions: pH 7.4, 25 °C, GTP 1.0 mM, MgCl2 2.0 mM, pyrophosphatase 1 U
substance,measurement,value
Cj1423 (Campylobacter jejuni subsp. jejuni NCTC 11168 = ATCC 700819),Km,495 ± 65 µM
same,kcat,1.35 ± 0.04 s⁻¹
same,kcat/Km,2700 ± 400 M⁻¹ s⁻¹
